From US20040052799A1, “Nucleic acid and amino acid sequences relating to Helicobacter pylori for diagnostics and therapeutics” (Astra Aktiebolag, priority 1996, published 2004)

System: N[C@@H](CC=O)C(=O)O
Assay: purified protein, by the assay type
Conditions: other: pH 8.0

With H. pylori Asd (Helicobacter pylori J99) the Km was 54 µM.
